# Tests used:
# [1] = HA-Ub, MYC-β-catenin IP, 293T; details: glycan lost; control: SPOP-WT
# [2] = HA-Ub co-transfection, IP, 293T; details: glycan lost; control: SPOP-WT
# WB, CRC cells = details: glycan lost; control: SPOP-WT
# WB of SPOP, HCT116 = details: glycan lost; control: untreated cells
Protein,other: substrate β-catenin ubiquitination [1],other: ubiquitination of SPOP [2],"other: substrate β-catenin protein level (WB, CRC cells)","expression_or_secretion (WB of SPOP, HCT116)"
SPOP (Speckle-type POZ protein): S58/59 A (protein) parent chain: MSRVPSPPPPAEMSSGPVAESWCYTQIKVVKFSYMWTINNFSFCREEMGEVIKSSTFSSGANDKLKWCLRVNPKGLDEESKDYLSLYLLLVSCPKSEVRAKFKFSILNAKGEETKAMESQRAYRFVQGKDWGFKKFIRRDFLLDEANGLLPDDKLTLFCEVSVVQDSVNISGQNTMNMVKVPECRLADELGGLWENSRFTDCCLCVAGQEFQAHKAILAARSPVFSAMFEHEMEESKKNRVEINDVEPEVFKEMMCFIYTGKAPNLDKMADDLLAAADKYALERLKVMCEDALCSNLSVENAAEILILADLHSADQLKTQAVDFINYHASDVLETSGWKSMVVSHPHLVAEAYRSLASAQCPFLGPPRKRLKQS,increases,increases,decreases,
SPOP (Speckle-type POZ protein): OSMI-1 (protein) parent chain: MSRVPSPPPPAEMSSGPVAESWCYTQIKVVKFSYMWTINNFSFCREEMGEVIKSSTFSSGANDKLKWCLRVNPKGLDEESKDYLSLYLLLVSCPKSEVRAKFKFSILNAKGEETKAMESQRAYRFVQGKDWGFKKFIRRDFLLDEANGLLPDDKLTLFCEVSVVQDSVNISGQNTMNMVKVPECRLADELGGLWENSRFTDCCLCVAGQEFQAHKAILAARSPVFSAMFEHEMEESKKNRVEINDVEPEVFKEMMCFIYTGKAPNLDKMADDLLAAADKYALERLKVMCEDALCSNLSVENAAEILILADLHSADQLKTQAVDFINYHASDVLETSGWKSMVVSHPHLVAEAYRSLASAQCPFLGPPRKRLKQS,,,,increases

# Reference: paper PMC12603323
